From patent publication US20200148774A1 (Genentech, published 2020)

Columns and labels:
[1] = target: T1, human CLL-1 on cells (endogenous on HL-60, EOL-1 and other AML cell lines and CD14+ monocytes); recombinant on … (human, UniProt Q5QGZ9 1-265); assay: cell-based or functional assay
T1 sequence: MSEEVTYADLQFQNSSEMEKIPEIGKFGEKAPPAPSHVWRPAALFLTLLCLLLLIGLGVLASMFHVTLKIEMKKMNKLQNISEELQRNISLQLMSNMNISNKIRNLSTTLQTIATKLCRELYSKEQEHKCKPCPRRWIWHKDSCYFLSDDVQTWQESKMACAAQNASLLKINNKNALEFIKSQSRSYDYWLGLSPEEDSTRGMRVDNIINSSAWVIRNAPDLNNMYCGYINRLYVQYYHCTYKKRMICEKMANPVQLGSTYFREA

[2] = target: T1, human CLL-1 on cells (endogenous on …); assay: cell-based or functional assay; remark: listed apart in the source
[3] = target: T1, human CLL-1 on cells (endogenous on …); assay: cell-based or functional assay; remark: listed apart in the source
[4] = target: T2, recombinant cynomolgus CLL-1 extracellular domain (ECD, amino acids 65-265) fused to an N-terminal Flag (cynomolgus monkey); assay: affinity column of the TDB summary table (rounded Biacore KD of the second the 8th table / the 4th table tables)
T2 construct: Construct stated for the immunogen; also called CynoCLL-1 Flag; cynoCLL-1
T2 chain: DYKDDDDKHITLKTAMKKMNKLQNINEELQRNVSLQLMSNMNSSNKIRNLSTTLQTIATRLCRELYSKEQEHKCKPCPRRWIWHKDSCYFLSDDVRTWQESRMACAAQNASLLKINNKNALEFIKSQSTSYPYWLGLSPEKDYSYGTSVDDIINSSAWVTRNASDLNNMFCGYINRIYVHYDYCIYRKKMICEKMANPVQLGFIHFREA

[5] = target: T3, recombinant human CLL-1 extracellular domain (ECD, amino acids 65-265) fused to an N-terminal Flag (human, UniProt Q5QGZ9 65-265); assay: as above
T3 construct: The construct and the K244Q SNP are stated for the immunogen; they are not written as a piece; also called huCLL-1-Flag; huCLL-1
T3 chain: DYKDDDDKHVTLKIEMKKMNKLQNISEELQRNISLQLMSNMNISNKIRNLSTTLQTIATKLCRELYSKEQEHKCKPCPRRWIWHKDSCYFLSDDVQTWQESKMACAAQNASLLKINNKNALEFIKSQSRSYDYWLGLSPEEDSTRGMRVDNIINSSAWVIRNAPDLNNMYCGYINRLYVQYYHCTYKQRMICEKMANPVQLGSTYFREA

[6] = target: T2, recombinant cynomolgus CLL-1 …; assay: SPR (Biacore T200), IgG captured by anti-human Fc, CLL-1 as analyte
[7] = target: T3, recombinant human CLL-1 extracellular …; assay: as above
[8] = target: T2, recombinant cynomolgus CLL-1 …; assay: SPR (Biacore), chimeric IgG captured by anti-human IgG, CLL-1 as analyte
Method: (§1) The chimeric anti-CLL-1 human IgG were captured by mouse anti-human IgG coated on the CM5 sensor chip. […] Association rates (kon) and dissociation rates (koff) were calculated using a simple one-to-one Langmuir binding model. The equilibrium dissociation constant (KD) was calculated as the ratio koff/kon.

[9] = target: T3, recombinant human CLL-1 extracellular …; assay: as above
Method: as §1

B1: h6E7 (6E7.L4H1e)×38E4v1 TDB (bispecific antibody, V domains shown)
VH 1: EVQLVQSGAEVKKPGASVKVSCKASGYSFTDYYMHWVRQAPGQGLEWIGRINPYNGAAFYSQNFKDRVTLTVDTSTSTAYLELSSLRSEDTAVYYCAIERGADLEGYAMDYWGQGTLVTVSS
VL 1: DIQMTQSPSSLSASVGDRVTITCRASQSVSTSSYNYMHWYQQKPGKPPKLLIKYASNLESGVPSRFSGSGSGTDFTLTISSLQPEDFATYYCQHSWEIPLTFGQGTKVEIK
VH 2: EVQLVQSGAEVKKPGASVKVSCKASGFTFTSYYIHWVRQAPGQGLEWIGWIYPENDNTKYNEKFKDRVTITADTSTSTAYLELSSLRSEDTAVYYCARDGYSRYYFDYWGQGTLVTVSS
VL 2: DIVMTQSPDSLAVSLGERATINCKSSQSLLNSRTRKNYLAWYQQKPGQSPKLLIYWTSTRKSGVPDRFSGSGSGTDFTLTISSLQAEDVAVYYCKQSFILRTFGQGTKVEIK
- EC50 for killing target cells (EOL-1) [1]: 9.1 ng/mL
- EC50 for killing target cells (THP-1) [1]: 5.4 ng/mL
- EC50 of killing of EOL-1 (other donors) [1]: 7.4 ng/mL
- EC50 of killing of EOL-1 target cells by cynomolgus pan-T cells [1]: ~5 ng/mL
- EC50 of killing of HL-60 (other donors) [1]: 95.6 ng/mL
- Cell killing EC50 (EOL-1 cells, human CD8+ T cells) [2]: 14 ng/mL
- average killing EC50, EOL-1 (n = 5) [3]: 4.1 ng/mL
- average killing EC50, HL-60 (n = 2) [3]: 104 ng/mL
- average killing EC50, ML-2 [3]: 2.5 ng/mL
- average killing EC50, Molm-13 (lowest expressor of CLL-1) [3]: 23 ng/mL
- average killing EC50, NOMO-1 [3]: 12.2 ng/mL
- average killing EC50, PL-21 [3]: 5.9 ng/mL
- average killing EC50, THP-1 (n = 3) [3]: 3.6 ng/mL
- average killing EC50, U937 [3]: 2.1 ng/mL
- average killing EC50, human autologous CD14+ (n = 3) [3]: 2.8 ng/ml

B2: 20B1×38E4v1 TDB (bispecific antibody, human IgG1, V domains shown)
VH 1: EVQLQQSGPELVKPGALVKISCKASGYTFTSYDINWLKQRPGQGLEWIGWIYPGDGTTEYNERFKGKATLTADKSSSTAYLQLSSLTSENSAVYFCARSYDYDYAMDYWGQGTSVTVSS
VL 1: DIVLTQSPAIMSASPGEKVTMTCSASSSISYMYWYQQKPGTSPKRWIYDTSKLASGVPARFSGSGSGTSYSLTISSMEAEDAATYYCHQRSSWTFGGGTKLEIK
VH 2: EVQLVQSGAEVKKPGASVKVSCKASGFTFTSYYIHWVRQAPGQGLEWIGWIYPENDNTKYNEKFKDRVTITADTSTSTAYLELSSLRSEDTAVYYCARDGYSRYYFDYWGQGTLVTVSS
VL 2: DIVMTQSPDSLAVSLGERATINCKSSQSLLNSRTRKNYLAWYQQKPGQSPKLLIYWTSTRKSGVPDRFSGSGSGTDFTLTISSLQAEDVAVYYCKQSFILRTFGQGTKVEIK
- Cell killing EC50 (EOL-1 cells, human CD8+ T cells) [2]: 531 ng/mL

B3: 28H12×38E4v1 TDB (bispecific antibody, human IgG1, V domains shown)
VH 1: QVQLQQSGAELVKPGASVKLSCTASGFNIKDTYMHWVKQRPEQGLEWIGRIDPANGDTDYDPKFQGKATVTADTSSNTAYLQLSSLTSEDTAVYYCTISGPPYYVMDYWGQGTSVTVSS
VL 1: DIQMTQSPASLAVSLGQRATISCRASQSVSSSSYSYMHWYQQKPGQPPKLLIKYASNLESGVPARFSGRGSGTDFTLNIHPVEEEDTATYYCQHSWEIPYTFGGGTRLEIK
VH 2: EVQLVQSGAEVKKPGASVKVSCKASGFTFTSYYIHWVRQAPGQGLEWIGWIYPENDNTKYNEKFKDRVTITADTSTSTAYLELSSLRSEDTAVYYCARDGYSRYYFDYWGQGTLVTVSS
VL 2: DIVMTQSPDSLAVSLGERATINCKSSQSLLNSRTRKNYLAWYQQKPGQSPKLLIYWTSTRKSGVPDRFSGSGSGTDFTLTISSLQAEDVAVYYCKQSFILRTFGQGTKVEIK
- Cell killing EC50 (EOL-1 cells, human CD8+ T cells) [2]: > 1000 ng/mL

B4: 6E7.L4H1eD54 (antibody, V domains shown)
VH: EVQLVQSGAEVKKPGASVKVSCKASGYSFTDYYMHWVRQAPGQGLEWIGRINPYDGAAFYSQNFKDRVTLTVDTSTSTAYLELSSLRSEDTAVYYCAIERGADLEGYAMDYWGQGTLVTVSS
VL: DIQMTQSPSSLSASVGDRVTITCRASQSVSTSSYNYMHWYQQKPGKPPKLLIKYASNLESGVPSRFSGSGSGTDFTLTISSLQPEDFATYYCQHSWEIPLTFGQGTKVEIK
notes: IgG; also called h6E7D; H6E7.L4H1D54
- Kd [4]: 48.7 nM
- Kd [5]: 113 nM
- Kd [6]: 48.7 nM
- koff [6]: 0.00869 s⁻¹
- kon [6]: 178000 M⁻¹ s⁻¹
- Kd [7]: 113 nM
- koff [7]: 0.0344 s⁻¹
- kon [7]: 304000 M⁻¹ s⁻¹

B5: ch20B1 (antibody, V domains shown)
VH: EVQLQQSGPELVKPGALVKISCKASGYTFTSYDINWLKQRPGQGLEWIGWIYPGDGTTEYNERFKGKATLTADKSSSTAYLQLSSLTSENSAVYFCARSYDYDYAMDYWGQGTSVTVSS
VL: DIVLTQSPAIMSASPGEKVTMTCSASSSISYMYWYQQKPGTSPKRWIYDTSKLASGVPARFSGSGSGTSYSLTISSMEAEDAATYYCHQRSSWTFGGGTKLEIK
notes: chimeric version of m20B1, human IgG; also called chimeric 20B1; 2061 [sic]
- Kd [4]: 6.1 nM
- Kd [5]: 4.5 nM
- Kd [8]: 6.1 nM
- koff [8]: 0.0012 s⁻¹
- kon [8]: 190000 M⁻¹ s⁻¹
- Kd [9]: 4.5 nM
- koff [9]: 0.001 s⁻¹
- kon [9]: 220000 M⁻¹ s⁻¹

B6: ch28H12 (antibody, V domains shown)
VH: QVQLQQSGAELVKPGASVKLSCTASGFNIKDTYMHWVKQRPEQGLEWIGRIDPANGDTDYDPKFQGKATVTADTSSNTAYLQLSSLTSEDTAVYYCTISGPPYYVMDYWGQGTSVTVSS
VL: DIQMTQSPASLAVSLGQRATISCRASQSVSSSSYSYMHWYQQKPGQPPKLLIKYASNLESGVPARFSGRGSGTDFTLNIHPVEEEDTATYYCQHSWEIPYTFGGGTRLEIK
notes: chimeric version of m28H12, human IgG; also called chimeric 28H12
- Kd [4]: 0.3 nM
- Kd [5]: 18 nM
- Kd [8]: 0.3 nM
- koff [8]: 0.00023 s⁻¹
- kon [8]: 670000 M⁻¹ s⁻¹
- Kd [9]: 18 nM
- koff [9]: 0.0095 s⁻¹
- kon [9]: 500000 M⁻¹ s⁻¹
